What was measured:
[1] = biological target: T1, mouse mature HER3 ECD as shown in SEQ ID NO: 24 (mouse, UniProt Q61526 20-641); assay: SPR (Biacore), antibody captured on Protein A, soluble HER3-ECD as analyte, 37°C, 1:1 model
T1 construct: also called mouse HER3 ECD; mouse soluble HER3-ECD

[2] = biological target: T2, human HER3 ECD as shown in SEQ ID NO: 23 (human, UniProt P21860 20-643); assay: as above
T2 construct: also called soluble HER3-ECD

Rhesus mature HER3-ECD [3] = biological target: T3, Rhesus mature HER3-ECD (rhesus monkey, UniProt H9ERZ8 20-643); assay: as above
T3 construct: extracellular domain; Bought protein; also called Rhesus HER3-ECD; cynomolgus monkey HER3-ECD

[4] = biological target: T1, mouse mature HER3 ECD as shown in SEQ …; assay: SPR (Biacore), antibody captured on Protein A, soluble HER3-ECD as analyte
[5] = biological target: T2, human HER3 ECD as shown in SEQ ID NO: 23; assay: as above
Rhesus mature HER3-ECD [6] = biological target: T3, Rhesus mature HER3-ECD; assay: as above

T2 sequence (P21860 other isoform, or with tags, fused parts or gaps, form in doubt): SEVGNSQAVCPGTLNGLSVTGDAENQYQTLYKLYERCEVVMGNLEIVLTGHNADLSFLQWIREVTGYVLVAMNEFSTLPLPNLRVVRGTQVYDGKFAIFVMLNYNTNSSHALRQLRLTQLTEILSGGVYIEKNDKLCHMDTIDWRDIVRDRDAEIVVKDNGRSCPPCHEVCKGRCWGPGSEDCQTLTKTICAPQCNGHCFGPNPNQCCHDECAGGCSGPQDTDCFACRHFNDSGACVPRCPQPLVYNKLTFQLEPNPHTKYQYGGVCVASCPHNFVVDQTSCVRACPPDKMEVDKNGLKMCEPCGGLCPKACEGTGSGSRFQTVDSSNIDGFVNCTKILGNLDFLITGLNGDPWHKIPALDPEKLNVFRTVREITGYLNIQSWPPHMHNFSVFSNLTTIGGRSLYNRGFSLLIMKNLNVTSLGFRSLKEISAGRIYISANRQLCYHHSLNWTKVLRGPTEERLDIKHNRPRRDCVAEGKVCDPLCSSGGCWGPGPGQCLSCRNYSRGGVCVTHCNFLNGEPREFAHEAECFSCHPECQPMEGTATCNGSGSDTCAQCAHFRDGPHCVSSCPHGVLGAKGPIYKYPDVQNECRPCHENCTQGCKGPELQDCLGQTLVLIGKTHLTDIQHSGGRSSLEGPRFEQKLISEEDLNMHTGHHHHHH
T3 sequence (H9ERZ8 entry or part of it): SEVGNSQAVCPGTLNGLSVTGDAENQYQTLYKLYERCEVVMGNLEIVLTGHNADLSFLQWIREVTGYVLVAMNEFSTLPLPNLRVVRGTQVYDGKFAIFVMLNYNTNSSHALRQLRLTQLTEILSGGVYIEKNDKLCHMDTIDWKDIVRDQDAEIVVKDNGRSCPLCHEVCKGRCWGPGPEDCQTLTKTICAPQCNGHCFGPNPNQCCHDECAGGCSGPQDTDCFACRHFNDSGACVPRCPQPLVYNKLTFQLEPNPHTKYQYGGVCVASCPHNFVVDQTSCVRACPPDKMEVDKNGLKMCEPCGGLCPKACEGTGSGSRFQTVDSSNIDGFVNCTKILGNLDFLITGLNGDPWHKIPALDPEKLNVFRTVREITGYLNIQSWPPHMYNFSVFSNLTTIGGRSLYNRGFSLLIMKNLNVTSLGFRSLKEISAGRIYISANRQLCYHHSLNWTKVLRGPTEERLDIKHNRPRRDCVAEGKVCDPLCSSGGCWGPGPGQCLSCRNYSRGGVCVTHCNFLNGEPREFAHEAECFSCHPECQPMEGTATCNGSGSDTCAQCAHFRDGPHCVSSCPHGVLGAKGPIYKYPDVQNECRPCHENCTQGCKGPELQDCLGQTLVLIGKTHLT
T1 sequence (Q61526 20-641 limits assumed): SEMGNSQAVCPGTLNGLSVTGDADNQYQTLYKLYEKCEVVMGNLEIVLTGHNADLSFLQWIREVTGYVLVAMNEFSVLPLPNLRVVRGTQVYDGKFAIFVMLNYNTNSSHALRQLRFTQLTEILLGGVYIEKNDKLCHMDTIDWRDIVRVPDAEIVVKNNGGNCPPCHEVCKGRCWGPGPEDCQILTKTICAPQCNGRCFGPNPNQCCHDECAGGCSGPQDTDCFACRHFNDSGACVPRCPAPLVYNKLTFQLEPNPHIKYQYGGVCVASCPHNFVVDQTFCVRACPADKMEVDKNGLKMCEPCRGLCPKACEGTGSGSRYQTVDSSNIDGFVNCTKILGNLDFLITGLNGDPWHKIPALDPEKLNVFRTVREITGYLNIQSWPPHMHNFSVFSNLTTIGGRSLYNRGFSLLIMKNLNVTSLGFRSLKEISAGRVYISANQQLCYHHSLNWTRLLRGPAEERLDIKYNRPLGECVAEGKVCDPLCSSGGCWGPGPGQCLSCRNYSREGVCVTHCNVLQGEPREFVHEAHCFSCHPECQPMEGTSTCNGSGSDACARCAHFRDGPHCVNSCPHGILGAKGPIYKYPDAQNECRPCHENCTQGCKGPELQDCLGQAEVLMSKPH

Kd [1]: 3 nM | Kd [2]: 1.6 nM | Kd (Rhesus mature HER3-ECD [3]): 2.1 nM | binding stoichiometry [4]: ~2 moles of ligand per mole of antibody | binding stoichiometry [5]: ~2 moles of ligand per mole of antibody | binding stoichiometry (Rhesus mature HER3-ECD [6]): ~2 moles of ligand per mole of antibody
B1: anti-HER3 Antibody A (antibody, human IgG1, kappa, V domains shown)
VH: EVQLVESGGGLVKPGGSLRLSCAASGFSLDTYTMIWVRQAPGKGLEWVGIIYVTYNTYYANWAKGRFTISRDDSKNTLYLQMNSLKTEDTAVYYCTRWGDQNGLDIWGQGTLVTVSS
VL: DIQMTQSPSSLSASVGDRVTITCQSSQRVYGNKNLAWYQQKPGKAPKLLIYFARTLASGVPSRFSGSGSGTDFTLTISSLQPEDFATYYCQGTYYGTNWYVGFGGGTKVEIKR
notes: IgG type; human IgG1 Fc with C-terminal lysine deletion is stated only in embodiment language

Reference: patent WO2017015008A1 (dated 2017)
